These results are taken from patent publication US20090029864A1.

This assay deals with T1, His-tagged Stx 2B-subunit (wild type) (enterohemorrhagic Escherichia coli O157:H7), P09386.
T1 chain: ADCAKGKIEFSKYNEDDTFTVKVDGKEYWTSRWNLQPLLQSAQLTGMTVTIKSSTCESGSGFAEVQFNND

In the case of MAKRRNPRRA (modifications not checked) [(Met-Ala-KRRNPRR-Ala-AHA-)4-3Lys], the RUmax turned out to be 1290 AU.
In turn, MAPPRRNRRA (modifications not checked) [(Met-Ala-PPRRNRR-Ala-AHA-)4-3Lys] displayed an RUmax of 1350 AU.
As to MAFRRNRRNA (modifications not checked) [(Met-Ala-FRRNRRN-Ala-AHA-)4-3Lys], the RUmax came out at 1490 AU.
The molecule MAPPPRRRRA (modifications not checked) [(Met-Ala-PPPRRRR-Ala-AHA-)4-3Lys] returned an RUmax of 1250 AU.
